Data from PMC314469, “Protein Interaction Networks by Proteome Peptide Scanning” (PLoS Biology, 2004).

Columns and labels:
Test in all cases: SPOT array
[1] = target: T1, Boi2 SH3 (BOI2_YEAST), P39969
T1 chain: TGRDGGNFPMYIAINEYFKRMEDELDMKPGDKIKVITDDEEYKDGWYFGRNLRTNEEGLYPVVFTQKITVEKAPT

[2] = target: T2, Yhr016c SH3 (YSC84_YEAST), P32793
T2 chain: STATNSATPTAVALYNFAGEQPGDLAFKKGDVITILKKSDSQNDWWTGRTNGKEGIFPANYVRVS

[3] = target: Sho1 SH3 (SHO1_YEAST), P40073
[4] = target: T3, Boi1 SH3 (BOI1_YEAST), P38041
T3 chain: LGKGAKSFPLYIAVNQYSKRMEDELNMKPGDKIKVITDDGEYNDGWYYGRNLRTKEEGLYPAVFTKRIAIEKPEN

[5] = target: T4, Yfr024 SH3 (LSB3_YEAST), P43603
T4 chain: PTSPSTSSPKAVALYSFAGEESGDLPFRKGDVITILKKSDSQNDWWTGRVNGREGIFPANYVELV

[6] = target: T5, Myo5 SH3 (MYO5_YEAST), Q04439
T5 chain: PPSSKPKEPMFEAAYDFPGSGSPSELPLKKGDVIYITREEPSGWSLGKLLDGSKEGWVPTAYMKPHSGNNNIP

[7] = target: T6, Rvs167 SH3 (RV167_YEAST), P39743
T6 chain: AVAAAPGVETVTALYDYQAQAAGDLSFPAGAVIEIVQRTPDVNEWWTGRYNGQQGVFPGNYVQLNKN

Chain of Sho1 SH3 (SHO1_YEAST), P40073 (P40073 295-366): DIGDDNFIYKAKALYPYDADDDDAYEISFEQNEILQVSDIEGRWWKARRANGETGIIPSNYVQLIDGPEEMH

PDLNKRPPREPIEF [YDR195W 471-484]
normalised SPOT signal, Boehringer light units (BLU); mean over the file's lines of this peptide [1]: 10.6
normalised SPOT signal, Boehringer light units (BLU); mean over the file's lines of this peptide [2]: 4.6
normalised SPOT signal, Boehringer light units (BLU); mean over the file's lines of this peptide [3]: 69.6
normalised SPOT signal, Boehringer light units (BLU); mean over the file's lines of this peptide [4]: 114
normalised SPOT signal, Boehringer light units (BLU); mean over the file's lines of this peptide [5]: 268
normalised SPOT signal, Boehringer light units (BLU); mean over the file's lines of this peptide [6]: 192
normalised SPOT signal, Boehringer light units (BLU); mean over the file's lines of this peptide [7]: 27.8

PELAKNSPLAPIKK [YLL021W 1081-1094]
normalised SPOT signal, Boehringer light units (BLU); mean over the file's lines of this peptide [1]: 0
normalised SPOT signal, Boehringer light units (BLU); mean over the file's lines of this peptide [2]: 14.6
normalised SPOT signal, Boehringer light units (BLU); mean over the file's lines of this peptide [3]: 54.8
normalised SPOT signal, Boehringer light units (BLU); mean over the file's lines of this peptide [4]: 685
normalised SPOT signal, Boehringer light units (BLU); mean over the file's lines of this peptide [5]: 69.3
normalised SPOT signal, Boehringer light units (BLU); mean over the file's lines of this peptide [6]: 125
normalised SPOT signal, Boehringer light units (BLU); mean over the file's lines of this peptide [7]: 31.5

PESAKSNPNSPRLK [YOR231W 8-21]
normalised SPOT signal, Boehringer light units (BLU); mean over the file's lines of this peptide [1]: 0
normalised SPOT signal, Boehringer light units (BLU); mean over the file's lines of this peptide [2]: 31.8
normalised SPOT signal, Boehringer light units (BLU); mean over the file's lines of this peptide [3]: 69.5
normalised SPOT signal, Boehringer light units (BLU); mean over the file's lines of this peptide [4]: 618
normalised SPOT signal, Boehringer light units (BLU); mean over the file's lines of this peptide [5]: 89.7
normalised SPOT signal, Boehringer light units (BLU); mean over the file's lines of this peptide [6]: 253
normalised SPOT signal, Boehringer light units (BLU); mean over the file's lines of this peptide [7]: 80.9

PEWRRPHPNIPDAK [YJR035W 269-282]
normalised SPOT signal, Boehringer light units (BLU); mean over the file's lines of this peptide [1]: 40.3
normalised SPOT signal, Boehringer light units (BLU); mean over the file's lines of this peptide [2]: 145
normalised SPOT signal, Boehringer light units (BLU); mean over the file's lines of this peptide [3]: 9.9
normalised SPOT signal, Boehringer light units (BLU); mean over the file's lines of this peptide [4]: 1280
normalised SPOT signal, Boehringer light units (BLU); mean over the file's lines of this peptide [5]: 1150
normalised SPOT signal, Boehringer light units (BLU); mean over the file's lines of this peptide [6]: 183
normalised SPOT signal, Boehringer light units (BLU); mean over the file's lines of this peptide [7]: 94.1

PFIRRYTPLKPITK [YKR093W 410-423]
normalised SPOT signal, Boehringer light units (BLU); mean over the file's lines of this peptide [1]: 67.8
normalised SPOT signal, Boehringer light units (BLU); mean over the file's lines of this peptide [2]: 91.6
normalised SPOT signal, Boehringer light units (BLU); mean over the file's lines of this peptide [3]: 59
normalised SPOT signal, Boehringer light units (BLU); mean over the file's lines of this peptide [4]: 529
normalised SPOT signal, Boehringer light units (BLU); mean over the file's lines of this peptide [5]: 624
normalised SPOT signal, Boehringer light units (BLU); mean over the file's lines of this peptide [6]: 649
normalised SPOT signal, Boehringer light units (BLU); mean over the file's lines of this peptide [7]: 585

PFLIKFTPKFPQSI [YMR156C 9-22]
normalised SPOT signal, Boehringer light units (BLU); mean over the file's lines of this peptide [1]: 0
normalised SPOT signal, Boehringer light units (BLU); mean over the file's lines of this peptide [2]: 27.7
normalised SPOT signal, Boehringer light units (BLU); mean over the file's lines of this peptide [3]: 97.2
normalised SPOT signal, Boehringer light units (BLU); mean over the file's lines of this peptide [4]: 65
normalised SPOT signal, Boehringer light units (BLU); mean over the file's lines of this peptide [5]: 116
normalised SPOT signal, Boehringer light units (BLU); mean over the file's lines of this peptide [6]: 974
normalised SPOT signal, Boehringer light units (BLU); mean over the file's lines of this peptide [7]: 147

PGGPKFEPLYPREE [YHR165C 347-360]
normalised SPOT signal, Boehringer light units (BLU); mean over the file's lines of this peptide [1]: 16.6
normalised SPOT signal, Boehringer light units (BLU); mean over the file's lines of this peptide [2]: 16.9
normalised SPOT signal, Boehringer light units (BLU); mean over the file's lines of this peptide [3]: 40.6
normalised SPOT signal, Boehringer light units (BLU); mean over the file's lines of this peptide [4]: 0
normalised SPOT signal, Boehringer light units (BLU); mean over the file's lines of this peptide [5]: 12.3
normalised SPOT signal, Boehringer light units (BLU); mean over the file's lines of this peptide [6]: 90
normalised SPOT signal, Boehringer light units (BLU); mean over the file's lines of this peptide [7]: 176

PHFAKHSPDSPRTS [YER167W 325-338]
normalised SPOT signal, Boehringer light units (BLU); mean over the file's lines of this peptide [1]: 11
normalised SPOT signal, Boehringer light units (BLU); mean over the file's lines of this peptide [2]: 27.4
normalised SPOT signal, Boehringer light units (BLU); mean over the file's lines of this peptide [3]: 25.1
normalised SPOT signal, Boehringer light units (BLU); mean over the file's lines of this peptide [4]: 150
normalised SPOT signal, Boehringer light units (BLU); mean over the file's lines of this peptide [5]: 33.4
normalised SPOT signal, Boehringer light units (BLU); mean over the file's lines of this peptide [6]: 236
normalised SPOT signal, Boehringer light units (BLU); mean over the file's lines of this peptide [7]: 110

PIGSRYNPNLPVTE [YPR019W 677-690]
normalised SPOT signal, Boehringer light units (BLU); mean over the file's lines of this peptide [1]: 148
normalised SPOT signal, Boehringer light units (BLU); mean over the file's lines of this peptide [2]: 87.4
normalised SPOT signal, Boehringer light units (BLU); mean over the file's lines of this peptide [3]: 36.1
normalised SPOT signal, Boehringer light units (BLU); mean over the file's lines of this peptide [4]: 132
normalised SPOT signal, Boehringer light units (BLU); mean over the file's lines of this peptide [5]: 197
normalised SPOT signal, Boehringer light units (BLU); mean over the file's lines of this peptide [6]: 187
normalised SPOT signal, Boehringer light units (BLU); mean over the file's lines of this peptide [7]: 95.7

PIRLRKRPPPPPPV [YIL156W 508-521]
normalised SPOT signal, Boehringer light units (BLU); mean over the file's lines of this peptide [1]: 39.2
normalised SPOT signal, Boehringer light units (BLU); mean over the file's lines of this peptide [2]: 25.6
normalised SPOT signal, Boehringer light units (BLU); mean over the file's lines of this peptide [3]: 98.1
normalised SPOT signal, Boehringer light units (BLU); mean over the file's lines of this peptide [4]: 6390
normalised SPOT signal, Boehringer light units (BLU); mean over the file's lines of this peptide [5]: 292
normalised SPOT signal, Boehringer light units (BLU); mean over the file's lines of this peptide [6]: 60300
normalised SPOT signal, Boehringer light units (BLU); mean over the file's lines of this peptide [7]: 289

PIVKKNVPKPPPLV [YBR123C 400-413]
normalised SPOT signal, Boehringer light units (BLU); mean over the file's lines of this peptide [1]: 167
normalised SPOT signal, Boehringer light units (BLU); mean over the file's lines of this peptide [2]: 27.1
normalised SPOT signal, Boehringer light units (BLU); mean over the file's lines of this peptide [3]: 50.2
normalised SPOT signal, Boehringer light units (BLU); mean over the file's lines of this peptide [4]: 262
normalised SPOT signal, Boehringer light units (BLU); mean over the file's lines of this peptide [5]: 64.6
normalised SPOT signal, Boehringer light units (BLU); mean over the file's lines of this peptide [6]: 154
normalised SPOT signal, Boehringer light units (BLU); mean over the file's lines of this peptide [7]: 33

PKSEKIEPLSPSFK [YJL172W 61-74]
normalised SPOT signal, Boehringer light units (BLU); mean over the file's lines of this peptide [1]: 7.7
normalised SPOT signal, Boehringer light units (BLU); mean over the file's lines of this peptide [2]: 0.1
normalised SPOT signal, Boehringer light units (BLU); mean over the file's lines of this peptide [3]: 84.8
normalised SPOT signal, Boehringer light units (BLU); mean over the file's lines of this peptide [4]: 536
normalised SPOT signal, Boehringer light units (BLU); mean over the file's lines of this peptide [5]: 0
normalised SPOT signal, Boehringer light units (BLU); mean over the file's lines of this peptide [6]: 116
normalised SPOT signal, Boehringer light units (BLU); mean over the file's lines of this peptide [7]: 44.3

PKHIRNEPVKPFRN [YHR037W 25-38]
normalised SPOT signal, Boehringer light units (BLU); mean over the file's lines of this peptide [1]: 0
normalised SPOT signal, Boehringer light units (BLU); mean over the file's lines of this peptide [2]: 59.8
normalised SPOT signal, Boehringer light units (BLU); mean over the file's lines of this peptide [3]: 46.8
normalised SPOT signal, Boehringer light units (BLU); mean over the file's lines of this peptide [4]: 1660
normalised SPOT signal, Boehringer light units (BLU); mean over the file's lines of this peptide [5]: 928
normalised SPOT signal, Boehringer light units (BLU); mean over the file's lines of this peptide [6]: 361
normalised SPOT signal, Boehringer light units (BLU); mean over the file's lines of this peptide [7]: 49.7
